The numbers were not newly measured in patent US10472401B2, “Peptides and combination of peptides for use in immunotherapy against ovarian cancer and other cancers” (immatics biotechnologies GmbH, priority 2015, dated 2019), which cites them from elsewhere.

The subject of the data set is ovarian cancer. To be noted: clinical studies.

B1: abagovomab (antibody, chains of the INN, looked up, V domains shown)
VH: QVKLQESGAELARPGASVKLSCKASGYTFTNYWMQWVKQRPGQGLDWIGAIYPGDGNTRYTHKFKGKATLTADKSSSTAYMQLSSLASEDSGVYYCARGEGNYAWFAYWGQGTTVTVSS
VL: DIELTQSPASLSASVGETVTITCQASENIYSYLAWHQQKQGKSPQLLVYNAKTLAGGVSSRFSGSGSGTHFSLKIKSLQPEDFGIYYCQHHYGILPTFGGGTKLEIK
notes: anti-CA-125 antibody
For the molecule B1, the “clinical results in ovarian cancer patients” value was “promising results in phase II and III studies”.
